What follows are sequences tested on Saccharomyces cerevisiae (assay: transcriptional activation domain activity (GFP:mCherry ratio, weighted mean of sorted bins, harmonized to initial dataset scale) (arbitrary fluorescence ratio units); higher = stronger transcriptional activation). Conditions: beta-estradiol 1 µM; induction time 4 h.
Method in brief: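 Each value is an activation activity: the read-weighted mean of bin median fluorescence, averaged across barcodes, then mapped linearly to the initial dataset scale. The tiles, fused to an estradiol-inducible synthetic transcription factor, sat at the yeast URA3 locus in GFP-reporter diploids. Cells spent 4 hours at 30 °C in SC with 1 uM beta-estradiol before sorting into 8 GFP:mCherry bins, and tiles below 50 reads were removed.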
For “LSHSFFSSCCCLLRTLGRFLLFIIFFLSFYFFIFTFFFFFSFQTYLLLYLLLI”, the “transcriptional activation domain activity” value was 31400.
For “LSHSFFSSCCCLLRTLGRFLLFIIFFLSFYFLPFFFSFQTYLLLYLLLIVYFH”, the “transcriptional activation domain activity” value was 29700.
With “LSIFSWMSWIAPESLNLSTITGFNNGLGINPWPTWDWNTLLFDAADPLMIPFF” the “transcriptional activation domain activity” value was 39700.
For “LSILIYESIPERRQSSLARSDGISAMDVCVSLLVTLAHLSPLVSRFGGVTING”, the “transcriptional activation domain activity” value was 72500.
“LSILSSLSFSFLSSLSLSFFTLIPFLPLLLFLYSLYSHLFLLLSFILFPHPSL” was tested, and the “transcriptional activation domain activity” value was 65400.
In the case of “LSIPLYGLGGPAFSDDDEGEDLIPEHERYIQEAIDGYWVLVLRILVSNRPRKT”, the “transcriptional activation domain activity” value is reported as 43800.
With “LSIWVKYLGCIVRWRKVRIFGESILPIQLLVVVVLLTLRPCSICAPLKVLPYK” the “transcriptional activation domain activity” value was 66000.
“LSKRPGKPPARPSPQAAVQRRSFHATSSALASKDPYKTLGVGKSASASEIKKA” was tested, and the “transcriptional activation domain activity” value was 39500.
With “LSLADFAWKLSDGEEKREQCGNVAQILLNTISHRVLRTIIRHLVAVVGVLTPS” the “transcriptional activation domain activity” value was 60000.
For “LSLAGSNYFGICWNPAVKNCIPYDTYLLWIRCMPFWYLFVFLYDILPPILIVY”, the “transcriptional activation domain activity” value was 52200.
“LSLLLQDRPRFIFGFSFLLLKSIWCIGFYFINSRLKCMCILYILLIDILYFTF” was tested, and the “transcriptional activation domain activity” value was 49800.
In the case of “LSLLSLCLGILHSSFKTCFVLLFVLIHICICTLFLIFSFFTPLLTIPTYVTLS”, the “transcriptional activation domain activity” value is reported as 57500.
With “LSLLVLGCWIPCIVVMEGYLRSLTFESFPYPGLYCFTSQGSHIVYLCWVLVAV” the “transcriptional activation domain activity” value was 46200.
“LSLPPPLPFFPPLFPFFFLFFFYLLISFFFSFLFCGEMDLGWALQVAAATYSH” was tested, and the “transcriptional activation domain activity” value was 36700.
With “LSLVLWCCGLKKSDLAIYLAWTFLVWPGPSPIFCHLSFLLLLLAFFLLPLLSV” the “transcriptional activation domain activity” value was 78100.
In the case of “LSLWFLILGALSTTSSFFNIFILQWGVIRCCSVIGPGPCTESILGITQLAVQF”, the “transcriptional activation domain activity” value is reported as 51100.
In the case of “LSLWSHTCRHYCSVIRCKHICMILCHIRANNSLIGMIGILLVLNCTILPSNRV”, the “transcriptional activation domain activity” value is reported as 69900.
With “LSLYRLSFPASFSLFSSFPSCLVAFPFPLPLPLPLPPSCSPFLLLLLLLLFFS” the “transcriptional activation domain activity” value was 51900.
For “LSNANHWKFIHIDEDGKLWRSNEFLLDLRLYNQDQVVIIYRFLHYVVKCCYES”, the “transcriptional activation domain activity” value was 54300.
With “LSPGKPHQGMVRVRSPNNMVAFVNLLVRLCDLGFPAHWISDYVQSMLMDKVVT” the “transcriptional activation domain activity” value was 66400.
With “LSPHLPPHLPPRLYFAIDSDLFLLLLLPPFDICFYLSSLLVLIFFIYLLLEVH” the “transcriptional activation domain activity” value was 30600.
With “LSQNYLLTWDDSGDWLSLADAGVIAALLFRNNLSETWLDEFASWCRLLWYLRQ” the “transcriptional activation domain activity” value was 58600.
In the case of “LSRAGTGGRAGTAKEAGEAAGGGEQQGEEAGGKEEAGAGAEGEAENGTGGKRN”, the “transcriptional activation domain activity” value is reported as 23400.
In the case of “LSRGSCFVFWIFFSVPPPLFPFIYSYIFFFSFLLWFSVFVSVVFSFFSFWFFF”, the “transcriptional activation domain activity” value is reported as 55700.
In the case of “LSRKASELRHATRNWALHSKHEEWNVSFRELARKYLIRPFLLMINPVCFLMSF”, the “transcriptional activation domain activity” value is reported as 74700.
With “LSRVTGKEHDQMCRIVLGILVDLRLPDNQNPTRLIWAVRALLDFLYLAQYPIH” the “transcriptional activation domain activity” value was 67200.
For “LSSFALLSSGYFLDVFFLFFCFFVFFVFPFLFLLSTVNTHAIFFFFLSFSFVI”, the “transcriptional activation domain activity” value was 60300.
With “LSSFFLGLLHIGFSLVGYLSLLRISPNVFSVLPRDHTWFNISRFLVLCTILPL” the “transcriptional activation domain activity” value was 59300.
In the case of “LSSLPPSAPPFPPPSPLPPPLCFPLPPLFPPFLPSLSFPLSPPPSHFPFPLIP”, the “transcriptional activation domain activity” value is reported as 27100.
In the case of “LSSSPSAQIATNTNVVFILGSDDKRVKEVGDALKTKLGVKGGGKGSKWSGKFG”, the “transcriptional activation domain activity” value is reported as 33200.
“LSSSPSAQMATNTNVVVVIGDDKRVKEVGDALKTKLGVKGGGKGMRWSGKFVG” was tested, and the “transcriptional activation domain activity” value was 26700.
With “LSSSPSSQSASSTSTVLVVGTDDKKVKEAGDELKSKLGVKGGGKGPRWSGKFT” the “transcriptional activation domain activity” value was 23800.
“LSSSSSVQTSAATTVVLVSGSDDKLVKAAGDALRARLGVKGGGKGQKWSGKFT” was tested, and the “transcriptional activation domain activity” value was 17600.
“LSSSVPIEAETFSSFRPDMNMTMNMNLHNASTSSFNNEAFWKPLDSAIDHHSG” was tested, and the “transcriptional activation domain activity” value was 53500.
For “LSSYLLKNALDVFCKYLPHVSKPVETVFKVKRKYSWMVLFLLYCILTHTNYHC”, the “transcriptional activation domain activity” value was 26800.
In the case of “LSTLFYIFCRYALVANFLYSLSIIKGSHIINCDIGYMICGVLSIFGHIGIIAV”, the “transcriptional activation domain activity” value is reported as 49800.
“LSTVLKWSYEEIQVHIMTMRKEILNRRNHAYYDMYVLLLQLLLHIADSLTRGS” was tested, and the “transcriptional activation domain activity” value was 45500.
For “LSVSLVYNSAYLLQRISFWVISFSTYTLPTWLFTLFSTSLTFTMNFTTLLIIV”, the “transcriptional activation domain activity” value was 78700.
With “LSVSVQGGQLQLRGLNITLTRCHDFMRNIFPLDFPQGRLLALILSLRLFFLST” the “transcriptional activation domain activity” value was 84500.
For “LSVVHISAPGYQAFFLLQSFRYILLWVLSFLSHFFLPFFLLCQGCFLVQHLPT”, the “transcriptional activation domain activity” value was 54000.
In the case of “LSYCHRPVFTCCDLYRTCLYCSIFYLLSFPILLPPSISLHIILLFSHTILIIL”, the “transcriptional activation domain activity” value is reported as 31700.

— the supplement of paper PMC12636428
